{
  "source": "patent US20110206658A1",
  "about": "(published 2011)",
  "binders": {"B1": {"name": "anti-cyno CD79b (10D10)-SMCC-DM1 (antibody, V domains shown)", "VH": "EVQLQESGPGLVKPSQSLSLTCTVTGYSITSDYAWNWIRQFPGNKLEWMGNIWYSGSTTYNPSLKSRISITRDTSKNQFFLQLNSVTSEDTATYYCSRMDFWGQGTTLTVSS", "VL": "DIVLTQSPPSLAVSLGQRATISCRASESVDSYGKTFMHWHQQKPGQPPKLLIYRVSNLESGIPARFSGSGSRTDFTLTINPVEADDVATYYCQQSNEDPFTFGGGTKLEIKR", "modifications": "DM1 linked through SMCC to the epsilon-amino group of lysines; drug to antibody ratio typically 3 to 4"}, "B2": {"name": "anti-cyno CD79b (10D10)-MC-MMAF (antibody, V domains shown)", "VH": "B1 VH", "VL": "B1 VL", "modifications": "MMAF linked through the cysteine by the maleimidocaproyl (MC) linker; sites and load not stated"}},
  "key": {"human CD79b (TAHO5)": {"target": "T1, human CD79b (TAHO5) (human, UniProt P40259 29-229)", "T1 sequence": "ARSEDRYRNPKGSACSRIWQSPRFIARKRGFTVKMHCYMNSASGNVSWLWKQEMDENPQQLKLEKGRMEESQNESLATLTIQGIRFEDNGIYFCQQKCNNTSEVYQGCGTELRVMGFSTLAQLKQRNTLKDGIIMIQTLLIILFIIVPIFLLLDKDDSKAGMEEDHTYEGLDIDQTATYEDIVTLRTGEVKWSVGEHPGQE", "experiment": "cell-based or functional assay"}, "[1]": {"target": "T2, cynomolgus CD79b (TAHO40) (cynomolgus monkey)", "T2 chain": "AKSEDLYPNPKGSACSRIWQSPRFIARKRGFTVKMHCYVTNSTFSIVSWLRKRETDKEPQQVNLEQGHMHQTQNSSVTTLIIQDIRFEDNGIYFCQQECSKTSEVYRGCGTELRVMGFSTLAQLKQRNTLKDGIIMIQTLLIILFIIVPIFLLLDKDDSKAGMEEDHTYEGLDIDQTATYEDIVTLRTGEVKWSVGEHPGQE", "experiment": "cell-based or functional assay"}},
  "data": [
    {"binder": "B1", "values": [
      {"measurement": "IC50 of tumor cell killing (CellTiter-Glo), non-transfected BJAB cells", "setting": "human CD79b (TAHO5)", "result": 10, "unit": "nM"},
      {"measurement": "IC50 of tumor cell killing (CellTiter-Glo), BJAB-cyno CD79b cells", "setting": "[1]", "result": 0.33, "unit": "nM"}
    ]},
    {"binder": "B2", "values": [
      {"measurement": "IC50 of tumor cell killing (CellTiter-Glo), non-transfected BJAB cells", "setting": "human CD79b (TAHO5)", "result": 694, "unit": "nM"},
      {"measurement": "IC50 of tumor cell killing (CellTiter-Glo), BJAB-cyno CD79b cells", "setting": "[1]", "result": 0.07, "unit": "nM"}
    ]}
  ]
}
